From PMC4835898 (Frontiers in Microbiology, 2016)
Values belong to the binder of their own block, whether it stands above or below them.

Legend:
[1] = target: T1, Bacillus subtilis DnaK wild type, 6xHis-tagged (Bacillus subtilis 168, UniProt P17820 1-611, to some extent phosphorylated (phosphotyrosine signal) during heterologous expression in E. coli; residues and extent not told for this preparation); assay: pull-down; 100 ug 6xHis-DnaK (WT or Y601F) and 100 ug Strep-tagged DnaJ or GrpE incubated with 1 ug anti-6xHis antibody (HIS.H8) in 450 uL IP Lysis/Wash Buffer (Pierce Classic IP Kit); captured on Protein A/G agarose; eluates blotted with anti-Strep tag and anti-His tag; conditions: both partners purified
T1 construct: probably the whole ORF, since Y601 lies near the C-terminus; also called DnaK WT; WT DnaK; source: E. coli (NEB Express Iq), purified (Ni-NTA, desalted on PD-10); not shown: 6xHis, N-terminal, kept

[2] = target: T2, Bacillus subtilis DnaK Y601F, 6xHis-tagged (Bacillus subtilis 168, UniProt P17820 1-611, Y601F, to some extent phosphorylated during heterologous expression in E. coli (on residues other than 601); residues not told for this preparation); assay: as above; conditions: both partners purified
T2 construct: the mutant is described as a version of the same protein in the same vector; source: E. coli (NEB Express Iq), purified (Ni-NTA, desalted on PD-10); not shown: 6xHis, N-terminal, kept

- binding result [1]: binds
- binding result [2]: binds
B1: Bacillus subtilis DnaJ, Strep-tagged (natural protein)
chain: not shown
notes: Made in a pQE-30 vector in which the His-tag was replaced by a strep-tag (Jers et al., 2010)

- binding result [1]: binds
- binding result [2]: binds
B2: Bacillus subtilis GrpE, Strep-tagged (natural protein, Bacillus subtilis 168, UniProt P15874 1-187, looked up)
chain: MSEEKQTVEQNETEEQEIIEEQAAADEQQEETNESELLQNQINELQGLLEEKENKLLRVQADFENYKRRSRLEMEASQKYRSQNIVTDLLPALDSFERALQVEADNEQTKSLLQGMEMVHRQLVEALKKEGVEAIEAVGQEFDPNLHQAVMQAEDENYGSNIVVEEMQKGYKLKDRVIRPSMVKVNQ
notes: as for B1
